Measured values taken from the supplement of paper PMC11246515.
± gives the standard deviation of the averaged measurements.

Assay: total protein half-life in vivo (active degradation + dilution); higher = more stable protein
[1] = E. coli NCM3722 delta-clpP delta-lon delta-hslV, growth: N-lim chemostat, doubling time 6 h
[2] = E. coli NCM3722 delta-clpP, growth: N-lim chemostat, doubling time 6 h
[3] = E. coli NCM3722 delta-hslV, growth: N-lim chemostat, doubling time 6 h
[4] = E. coli NCM3722 delta-lon, growth: N-lim chemostat, doubling time 6 h
[5] = E. coli NCM3722 delta-smpB, growth: N-lim chemostat, doubling time 6 h
[6] = wild type E. coli NCM3722, growth: C-lim chemostat, doubling time 3 h
[7] = wild type E. coli NCM3722, growth: C-lim chemostat, doubling time 6 h
[8] = wild type E. coli NCM3722, growth: C-lim chemostat, doubling time 12 h
[9] = wild type E. coli NCM3722, growth: N-lim chemostat, doubling time 6 h
[10] = wild type E. coli NCM3722, growth: N-lim chemostat, doubling time 12 h
[11] = wild type E. coli NCM3722, growth: P-lim chemostat, doubling time 6 h
[12] = wild type E. coli NCM3722, growth: P-lim chemostat, doubling time 12 h

Sequence	total protein half-life in vivo [1] [h]	total protein half-life in vivo [2] [h]	total protein half-life in vivo [3] [h]	total protein half-life in vivo [4] [h]	total protein half-life in vivo [5] [h]	total protein half-life in vivo [6] [h]	total protein half-life in vivo [7] [h]	total protein half-life in vivo [8] [h]	total protein half-life in vivo [9] [h]	total protein half-life in vivo [10] [h]	total protein half-life in vivo [11] [h]	total protein half-life in vivo [12] [h]
MSWQEKINAALDARRAADALRRRYPVAQGAGRWLVADDRQYLNFSSNDYLGLSHHPQIIRAWQQGAEQFGIGSGGSGHVSGYSVVHQALEEELAEWLGYSRALLFISGFAANQAVIAAMMAKEDRIAADRLSHASLLEAASLSPSQLRRFAHNDVTHLARLLASPCPGQQMVVTEGVFSMDGDSAPLAEIQQVTQQHNGWLMVDDAHGTGVIGEQGRGSCWLQKVKPELLVVTFGKGFGVSGAAVLCSSTVADYLLQFARHLIYSTSMPPAQAQALRASLAVIRSDEGDARREKLAALITRFRAGVQDLPFTLADSCSAIQPLIVGDNSRALQLAEKLRQQGCWVTAIRPPTVPAGTARLRLTLTAAHEMQDIDRLLEVLHGNG	4.06 ± 0.98	3.57 ± 0.11	3.29 ± 0.14	3.88 ± 0.17	3.54 ± 0.15	3.07 ± 0.22	5.16 ± 0.21	8.97 ± 0.33	3.58 ± 0.21	5.24 ± 0.38	5.643 ± 0.044	10.9 ± 0.2
MSWQQFKHAWLIKFWAPIPAVIAAGILSTYYFGITGTFWAVTGEFTRWGGQLLQLFGVHAEEWGYFKIIHLEGSPLTRIDGMMILGMFGGCFAAALWANNVKLRMPRSRIRIMQAIIGGIIAGFGARLAMGCNLAAFFTGIPQFSLHAWFFAIATAIGSWFGARFTLLPIFRIPVKMQKVSAASPLTQKPDQARRRFRLGMLVFFGMLGWALLTAMNQPKLGLAMLFGVGFGLLIERAQICFTSAFRDMWITGRTHMAKAIIIGMAVSAIGIFSYVQLGVEPKIMWAGPNAVIGGLLFGFGIVLAGGCETGWMYRAVEGQVHYWWVGLGNVIGSTILAYYWDDFAPALATDWDKINLLKTFGPMGGLLVTYLLLFAALMLIIGWEKRFFRRAAPQTAKEIA		1.86	2.16		3.67		4.44 ± 0.089	6.8 ± 1.4	3.69		2.95	
MSYPLFDKDEHWHKPEQAFLTDDHRTILRFAVEALMSGKGAVLVTLVEIRGGAARPLGAQMVVREDGRYCGFVSGGCVEAAAAFEALEMMGSGRDREIRYGEGSPWFDIVLPCGGGITLTLHKLRSAQPLLAVLNRLEQRKPVGLRYDPQAQSLVCLPTQTRTGWNLNGFEVGFRPCVRLMIYGRSLEAQATASLAAATGYDSHIFDLFPASASAQIDTDTAVILLCHDLNRELPVLQAAREAKPFYLGALGSYRTHTLRLQKLHELGWSREETTQIRAPVGIFPKARDAHTLALSVLAEVASVRLHQEEDSCLPPSS	5.9 ± 0.33											
MTAELLVNVTPSETRVAYIDGGILQEIHIEREARRGIVGNIYKGRVSRVLPGMQAAFVDIGLDKAAFLHASDIMPHTECVAGEEQKQFTVRDISELVRQGQDLMVQVVKDPLGTKGARLTTDITLPSRYLVFMPGASHVGVSQRIESESERERLKKVVAEYCDEQGGFIIRTAAEGVGEAELASDAAYLKRVWTKVMERKKRPQTRYQLYGELALAQRVLRDFADAELDRIRVDSRLTYEALLEFTSEYIPEMTSKLEHYTGRQPIFDLFDVENEIQRALERKVELKSGGYLIIDQTEAMTTVDINTGAFVGHRNLDDTIFNTNIEATQAIARQLRLRNLGGIIIIDFIDMNNEDHRRRVLHSLEQALSKDRVKTSVNGFSALGLVEMTRKRTRESIEHVLCNECPTCHGRGTVKTVETVCYEIMREIVRVHHAYDSDRFLVYASPAVAEALKGEESHSLAEVEIFVGKQVKVQIEPLYNQEQFDVVMM [P0A9J0]	3.85 ± 0.3	2.58 ± 0.087	3.04 ± 0.55	3.28 ± 0.38	2.62 ± 0.21	3.09 ± 0.69	4.36 ± 0.16	8.57 ± 0.57	2.6 ± 0.14	3.45 ± 0.073	5.69 ± 0.42	10.35 ± 0.087
MTAINRILIVDDEDNVRRMLSTAFALQGFETHCANNGRTALHLFADIHPDVVLMDIRMPEMDGIKALKEMRSHETRTPVILMTAYAEVETAVEALRCGAFDYVIKPFDLDELNLIVQRALQLQSMKKEIRHLHQALSTSWQWGHILTNSPAMMDICKDTAKIALSQASVLISGESGTGKELIARAIHYNSRRAKGPFIKVNCAALPESLLESELFGHEKGAFTGAQTLRQGLFERANEGTLLLDEIGEMPLVLQAKLLRILQEREFERIGGHQTIKVDIRIIAATNRDLQAMVKEGTFREDLFYRLNVIHLILPPLRDRREDISLLANHFLQKFSSENQRDIIDIDPMAMSLLTAWSWPGNIRELSNVIERAVVMNSGPIIFSEDLPPQIRQPVCNAGEVKTAPVGERNLKEEIKRVEKRIIMEVLEQQEGNRTRTALMLGISRRALMYKLQEYGIDPADV	5.23 ± 2.1	3.82	2.7	3.5	2.912 ± 0.0036	3.09 ± 0.26	5.56 ± 0.094	10.6 ± 2.5	3.16		4.99 ± 0.19	10.9 ± 1.7
MTAPLTLLIVEDETPLAEMHAEYIRHIPGFSQILLAGNLAQARMMIERFKPGLILLDNYLPDGRGINLLHELVQAHYPGDVVFTTAASDMETVSEAVRCGVFDYLIKPIAYERLGQTLTRFRQRKHMLESIDSASQKQIDEMFNAYARGEPKDELPTGIDPLTLNAVRKLFKEPGVQHTAETVAQALTISRTTARRYLEYCASRHLIIAEIVHGKVGRPQRIYHSG [P0AEF4]	4.85	3.389 ± 0.03	3.43		3.22	2.24	5.33	8.21	3 ± 0.62	5.34 ± 0.18	3.33 ± 0.5	7.63 ± 0.19
MTATAQQLEYLKNSIKSIQDYPKPGILFRDVTSLLEDPKAYALSIDLLVERYKNAGITKVVGTEARGFLFGAPVALGLGVGFVPVRKPGKLPRETISETYDLEYGTDQLEIHVDAIKPGDKVLVVDDLLATGGTIEATVKLIRRLGGEVADAAFIINLFDLGGEQRLEKQGITSYSLVPFPGH		4.03 ± 0.92	4.32 ± 0.47	4.33 ± 0.17	3.58 ± 0.46		4.57 ± 0.87	8.09 ± 0.39	5.06 ± 1	6.92 ± 0.095	5.1 ± 0.18	10.9 ± 0.8
MTDKMQSLALAPVGNLDSYIRAANAWPMLSADEERALAEKLHYHGDLEAAKTLILSHLRFVVHIARNYAGYGLPQADLIQEGNIGLMKAVRRFNPEVGVRLVSFAVHWIKAEIHEYVLRNWRIVKVATTKAQRKLFFNLRKTKQRLGWFNQDEVEMVARELGVTSKDVREMESRMAAQDMTFDLSSDDDSDSQPMAPVLYLQDKSSNFADGIEDDNWEEQAANRLTDAMQGLDERSQDIIRARWLDEDNKSTLQELADRYGVSAERVRQLEKNAMKKLRAAIEA [P0AGB3]	0.775 ± 0.044											0.858
MTDLIQRPRRLRKSPALRAMFEETTLSLNDLVLPIFVEEEIDDYKAVEAMPGVMRIPEKHLAREIERIANAGIRSVMTFGISHHTDETGSDAWREDGLVARMSRICKQTVPEMIVMSDTCFCEYTSHGHCGVLCEHGVDNDATLENLGKQAVVAAAAGADFIAPSAAMDGQVQAIRQALDAAGFKDTAIMSYSTKFASSFYGPFREAAGSALKGDRKSYQMNPMNRREAIRESLLDEAQGADCLMVKPAGAYLDIVRELRERTELPIGAYQVSGEYAMIKFAALAGAIDEEKVVLESLGSIKRAGADLIFSYFALDLAEKKILR [P0ACB2]	5.37 ± 0.27	5.78 ± 1.1	4.92 ± 0.25	5.46 ± 0.23	4.71 ± 0.18	2.99 ± 0.082	5.43 ± 0.14	9.8 ± 1.4	5.01 ± 0.34	8.03 ± 0.4	5.96 ± 0.23	11.9 ± 0.21
MTDLTAQEPAWQTRDHLDDPVIGELRNRFGPDAFTVQATRTGVPVVWIKREQLLEVGDFLKKLPKPYVMLFDLHGMDERLRTHREGLPAADFSVFYHLISIDRNRDIMLKVALAENDLHVPTFTKLFPNANWYERETWDLFGITFDGHPNLRRIMMPQTWKGHPLRKDYPARATEFSPFELTKAKQDLEMEALTFKPEEWGMKRGTENEDFMFLNLGPNHPSAHGAFRIVLQLDGEEIVDCVPDIGYHHRGAEKMGERQSWHSYIPYTDRIEYLGGCVNEMPYVLAVEKLAGITVPDRVNVIRVMLSELFRINSHLLYISTFIQDVGAMTPVFFAFTDRQKIYDLVEAITGFRMHPAWFRIGGVAHDLPRGWDRLLREFLDWMPKRLASYEKAALQNTILKGRSQGVAAYGAKEALEWGTTGAGLRATGIDFDVRKARPYSGYENFDFEIPVGGGVSDCYTRVMLKVEELRQSLRILEQCLNNMPEGPFKADHPLTTPPPKERTLQHIETLITHFLQVSWGPVMPANESFQMIEATKGINSYYLTSDGSTMSYRTRVRTPSFAHLQQIPAAIRGSLVSDLIVYLGSIDFVMSDVDR	6.01 ± 0.11	7.18 ± 1.1	5.883 ± 0.042	6.39 ± 0.17	6.2 ± 0.22	3.32 ± 0.17	6.15 ± 0.1	11.43 ± 0.014	6.33 ± 0.14	12.22 ± 0.12	6.224 ± 0.032	11.84 ± 0.096
MTDMNILDLFLKASLLVKLIMLILIGFSIASWAIIIQRTRILNAAAREAEAFEDKFWSGIELSRLYQESQGKRDNLTGSEQIFYSGFKEFVRLHRANSHAPEAVVEGASRAMRISMNRELENLETHIPFLGTVGSISPYIGLFGTVWGIMHAFIALGAVKQATLQMVAPGIAEALIATAIGLFAAIPAVMAYNRLNQRVNKLELNYDNFMEEFTAILHRQAFTVSESNKG [P0ABU9]	5.8 ± 0.98	6.17 ± 0.19	7.1 ± 0.95	6.83 ± 1.3	6.07 ± 0.051	3.13 ± 0.22	6.078 ± 0.021	11.9 ± 1.4	5.74 ± 0.16	11.6 ± 1.6	5.93 ± 0.14	12.7 ± 0.76
